± gives the uncertainty stated by the source.

The series in a line: amyloid nucleation score (Sup35N fusion, yeast selection) (log enrichment); library NNK1; higher = more nucleation; inactive = no reads after selection. The essentials:
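Peptides of 20 random codons, each fused to Sup35N, were expressed in psi-negative yeast. Cells were induced with 100 μM copper sulfate for 24 hours and grown 7 days at 30°C on medium lacking adenine and uracil, and plasmid inserts before and after selection were Illumina-sequenced. Nucleation scores are DiMSum log enrichments of output over input reads, centred on the mode score of non-aggregating sequences, and sequences under 100 input reads were excluded.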
WSKDNTIVEISYGTSGLVQL: the amyloid nucleation score came out at 0.39 ± 0.26.

On to WSLWARWSFRHRCQRMHLLL, for which the amyloid nucleation score stood at 0.174 ± 0.4.

For WSMMCKWMNVERFIYMLKSC, the amyloid nucleation score was determined as 0.394 ± 1.1.

On to WSTCLCGYCCVI, for which the amyloid nucleation score was 1.31 ± 0.2.

The substance WSTNNCCYA gave an amyloid nucleation score of -1.38 ± 2.1.

The substance WTNSRHC yielded an amyloid nucleation score of 0.636 ± 0.38.

In turn, WTTSVSL showed an amyloid nucleation score of -0.346 ± 0.84.

As for WVCFIFIIFETVS, the amyloid nucleation score is -0.207 ± 0.47.

On to WVFVNYWSGSKNQ, for which the amyloid nucleation score was 2.96 ± 0.14.

Consider WVIVRYRNFCVCGRPSKDIG, for which the amyloid nucleation score stood at 0.263 ± 0.32.

WVKCRDWYSILF returned an amyloid nucleation score of 5.19 ± 0.089.

WVLNG yielded an amyloid nucleation score of -0.514 ± 0.34.

For the substance WVRNSLCRQIRRSANHQSGA, the amyloid nucleation score result is “inactive”.

The substance WVRSNKGQAGSG displayed an amyloid nucleation score of 0.886 ± 1.

In turn, WVRYFPCRIII registered an amyloid nucleation score of -1.27 ± 0.79.

In turn, WVSPLVYDWYLT yielded an amyloid nucleation score of -0.929 ± 2.7.

As for WVVCVIDEGSSTFFINI, the amyloid nucleation score was -0.556 ± 1.4.

WVVISMSVRHVLACNLLPIR: the amyloid nucleation score is -0.013 ± 0.76.

Substance WVWSLRLLGFNNLMDKATGF had an amyloid nucleation score of -0.312 ± 0.24.

WWALIHRPMVRVLGVQRVD came in with an amyloid nucleation score of -0.297 ± 0.88.

In the case of WWATWRLLCIDNTACWADRW, the amyloid nucleation score was -0.177 ± 0.53.

For the substance WWHSL, the amyloid nucleation score amounted to 2.01 ± 0.62.

The substance WYKMSRRGQ returned an amyloid nucleation score of 0.857 ± 1.

Take WYRVCV: the amyloid nucleation score is -0.603 ± 0.65.

Consider WYWELGLALKRWRYAANFGS, for which the amyloid nucleation score is -0.19 ± 0.96.

The substance WYYDCWIYL yielded an amyloid nucleation score of 1.25 ± 0.46.

In turn, WYYYTVSSEGSNSAGTKLRG returned an amyloid nucleation score of 0.376 ± 0.38.

YAFDMRMENTQVRYHVPLII gave an amyloid nucleation score of 0.292 ± 0.73.

For YAKHFPVLRTCLLNSVWGQG, the amyloid nucleation score is 1.33 ± 0.57.

As for YASGLNSHDELVFYFYNRER, the amyloid nucleation score entry was “inactive”.

As to YCDNDSYH, the amyloid nucleation score is 1.42 ± 0.44.

For the substance YCDSWSVSFLICRSPFQNYM, the amyloid nucleation score is -1.12 ± 0.56.

YCGMKVDVVIVGRHVFRISF came in with an amyloid nucleation score of 0.512 ± 0.41.

The substance YCHCRFFDNLGCECLLR displayed an amyloid nucleation score of -0.368 ± 1.9.

YCQVYGSVWNFKRYYLATWS had an amyloid nucleation score of -0.128 ± 0.55.

Consider YCVIHSIRLGRIHLDCFWDF, for which the amyloid nucleation score result was “inactive”.

Turning to YDPPNCSAKSNQAGLKCTGA, the amyloid nucleation score stood at 2.22 ± 0.19.

Consider YDTTTHMRISMVGSSQPVCL, for which the amyloid nucleation score was -0.327 ± 0.3.

Substance YDWAVSAS returned an amyloid nucleation score of -0.364 ± 0.61.

Substance YEGYGPCWRKLYS gave an amyloid nucleation score of 0.15 ± 0.36.

Substance YELRFMRVEQGSQYREVS yielded an amyloid nucleation score of -0.159 ± 0.37.

YEYQEKFSFYIEVLGKDSLS registered an amyloid nucleation score of -0.864 ± 0.41.

Regarding YFAHGSWRLSCFLVYWLMRP, the amyloid nucleation score result was “inactive”.

Substance YFCAMGNHVLVS registered an amyloid nucleation score of -0.389 ± 0.49.

Substance YFCFFSRMFTVEF had an amyloid nucleation score of 2.12 ± 0.64.

The substance YFDVL gave an amyloid nucleation score of -0.537 ± 0.48.

Take YFFCVFI: the amyloid nucleation score came to 8.469 ± 0.072.

For YFGKYLIWWFMSKLAV, the amyloid nucleation score was -0.388 ± 0.29.

Consider YFHIESGLYYTWFMLYGPGR, for which the amyloid nucleation score is 0.154 ± 0.61.

The substance YFIDLISWL had an amyloid nucleation score of 0.198 ± 0.56.

Consider YFLGQMLISEGIMSVAFCVR, for which the amyloid nucleation score turned out to be 5.13 ± 0.073.

As to YFRRCFDRCVMSRLRPI, the amyloid nucleation score was -0.793 ± 0.61.

Regarding YFTERL, the amyloid nucleation score amounted to 0.122 ± 0.44.

Substance YFYDLSRCLFIHCTVGSQIL had an amyloid nucleation score of 7.769 ± 0.044.

In turn, YGFKLGMFTGSIAMYAGHLI yielded an amyloid nucleation score of -0.198 ± 0.31.

Substance YGGISMLLCRSVWRFNRQYI displayed an amyloid nucleation score of 0.547 ± 0.76.

As for YGHCFDFGVRTVLFNGFSLI, the amyloid nucleation score worked out at 1.29 ± 0.84.

Consider YGLDPHSAAEALLVRPNTGR, for which the amyloid nucleation score was -0.18 ± 0.41.

Substance YGRKISYLKFLKCVDVVLGW returned an amyloid nucleation score of 0.303 ± 0.28.

Substance YGSMVMDVEAR came in with an amyloid nucleation score of -0.001 ± 0.45.

Consider YGSSLAAWVRLCVLTGDSRQ, for which the amyloid nucleation score turned out to be 1.46 ± 0.38.

With YGVNLPALLFKYAISGSLVG, the amyloid nucleation score worked out at 1.03 ± 0.53.

For the substance YGVRFGVFLSTCLNFSGEYR, the amyloid nucleation score is -0.178 ± 0.42.

In the case of YGYGY, the amyloid nucleation score is -0.217 ± 0.23.

The substance YHANICSKFSSLYSNL returned an amyloid nucleation score of 1.01 ± 0.93.

YHGVTLVSLLRYKLW showed an amyloid nucleation score of 1.28 ± 0.27.

Regarding YHTSRYRCTMYMGNSHGAMP, the amyloid nucleation score was 0.228 ± 0.97.

With YHVYSVRSNVWALLKIRLV, the amyloid nucleation score was 1.14 ± 0.58.

Take YIDVGICYGGDERVLFLV: the amyloid nucleation score stood at 1.2 ± 0.61.

As to YIFAAWGGNKTHLCGQIKY, the amyloid nucleation score was 0.862 ± 0.18.

With YIKWSMIRFT, the amyloid nucleation score is -0.66 ± 0.46.

On to YIVRQECSRIQYLTDM, for which the amyloid nucleation score was 1.22 ± 0.73.

Consider YIVTTLQYDRSLASKVDEGT, for which the amyloid nucleation score is -0.489 ± 0.56.

Take YIWRNKKSAIRCDSKTVRRN: the amyloid nucleation score is -0.286 ± 0.35.

YKFKGSFVSIRQGAEVGYSA came in with an amyloid nucleation score of -0.361 ± 0.69.

YKGLFR showed an amyloid nucleation score of 0.065 ± 0.45.

In turn, YKGNKCCVKMMACWGTGCLP yielded an amyloid nucleation score of 1.98 ± 0.37.

In turn, YKMCFSKVYESTEPMMCTGV displayed an amyloid nucleation score of -0.904 ± 0.8.

In turn, YKNVCSDSVTLRKPGRVVLL returned an amyloid nucleation score of -0.278 ± 0.67.

The substance YLALVSANNASKKAVVKSTE registered an amyloid nucleation score of -0.054 ± 0.72.

YLCDSSLGVVYSFLHCRMVD: the amyloid nucleation score is -0.369 ± 0.67.

YLCFKYVLGCNRWSVAVVNF: the amyloid nucleation score result was “inactive”.

YLFPDVTRICCMGWSFTLLS displayed an amyloid nucleation score of 5.27 ± 0.053.

In turn, YLFQAGQDTRLLIC came in with an amyloid nucleation score of 0.236 ± 0.63.

For the substance YLKINTTYGCDI, the amyloid nucleation score amounted to 1.93 ± 0.34.

YLPYVSLQSVHWIMVGWLN showed an amyloid nucleation score of -0.163 ± 0.8.

In the case of YLREVYFFMGVWDRK, the amyloid nucleation score was 0.15 ± 0.44.

With YLVSTSRWGYLVLTLMWKEG, the amyloid nucleation score result is “inactive”.

Consider YLVVPERLVANRMVS, for which the amyloid nucleation score is -1.68 ± 2.4.

The substance YLYIRLPVITVRLDWLFGAK registered an amyloid nucleation score of 0.464 ± 0.84.

In turn, YLYVGS had an amyloid nucleation score of -0.352 ± 0.37.

On to YMEKWAWRVVNESCASVVPP, for which the amyloid nucleation score is -0.272 ± 0.89.

Consider YMGMLA, for which the amyloid nucleation score was found to be 2.34 ± 0.12.

As for YMLMKGSVRYH, the amyloid nucleation score is 2.49 ± 0.2.

In the case of YNDYACRYCFLVGTMD, the amyloid nucleation score turned out to be 7.615 ± 0.052.

Substance YNFVSCLVYRK yielded an amyloid nucleation score of 6.9 ± 0.071.

YNIVPSADWVSWHGRLTGRR gave an amyloid nucleation score of 1.42 ± 0.61.

The substance YNKCLCAVLSRMFTGWHISA displayed an amyloid nucleation score of 0.795 ± 0.88.

YNPNGLTMGCGHKYTVEHTT returned an amyloid nucleation score of 0.128 ± 0.47.

The substance YNSVLVTYYCKFSHTDSDSI showed an amyloid nucleation score of 3.04 ± 0.18.

With YNTSGNTRS, the amyloid nucleation score is -0.269 ± 0.64.

Consider YNVGLLGLFRCYAQKVGLWE, for which the amyloid nucleation score entry is “inactive”.

Substance YNYSRYIRERFWFYT registered an amyloid nucleation score of 0.115 ± 0.38.

YPAVNRWSLAVFSVRVRLAG: the amyloid nucleation score is -0.046 ± 0.38.

YPGGILIRRVNIKLDGAAIV came in with an amyloid nucleation score of -0.869 ± 0.68.

As to YPLINTLDMHRLCRIYCVNE, the amyloid nucleation score was -0.514 ± 0.54.

Turning to YPLSLRYQCI, the amyloid nucleation score stood at 0.2 ± 0.25.

The substance YPWIFCFEILHYYQLVRLWG registered an amyloid nucleation score of -1.13 ± 0.55.

Consider YQDVIPNPVHRYTV, for which the amyloid nucleation score amounted to 0.371 ± 0.31.

Take YQLTQLGLLS: the amyloid nucleation score amounted to 0.025 ± 0.49.

The substance YQVMLRSCLYLLYFSMFNCL displayed an amyloid nucleation score of 1.27 ± 0.79.

For the substance YRFSGEGALLASKWLINNCT, the amyloid nucleation score is -0.224 ± 0.4.

For the substance YRGMGTTPKFT, the amyloid nucleation score is 0.356 ± 1.

In the case of YRGYDKREYCSHFFTWDTYG, the amyloid nucleation score turned out to be 0.821 ± 0.72.

In turn, YRNEESVSKSHGCHDMSWFA displayed an amyloid nucleation score of 0.505 ± 0.54.

Regarding YRPNLLNSLTPTKTSIGSVY, the amyloid nucleation score amounted to 1.11 ± 0.6.

Substance YRPWMRYLTLIGNYRHAGHS came in with an amyloid nucleation score of 0.633 ± 0.62.

YRRDYGPKSVDWRPYVVEVR: the amyloid nucleation score came to 0.359 ± 0.64.

YRVNWFYMQRCAIP: the amyloid nucleation score was -0.269 ± 0.86.

As to YSAITNGSFQVLV, the amyloid nucleation score is 0.17 ± 0.21.

Substance YSAVISHDVGLFVYLTETET registered an amyloid nucleation score of -0.363 ± 0.56.

For the substance YSCCRVFMCARWLRVTCNMS, the amyloid nucleation score amounted to 0.189 ± 0.31.

For YSDWHI, the amyloid nucleation score is -0.511 ± 0.91.

Substance YSEWRSSHNRFMSRPLSTPR yielded an amyloid nucleation score of -0.992 ± 0.55.

In the case of YSFLNYLLTRFDIIFLAAED, the amyloid nucleation score entry is “inactive”.

On to YSGHWPWMQ, for which the amyloid nucleation score is -1.17 ± 0.74.

Substance YSITIRITEYNGVVSTGLHL displayed an amyloid nucleation score of 0.325 ± 0.6.

The substance YSNLSCSQTDVRSLR gave an amyloid nucleation score of 0.494 ± 0.49.

Take YSRSGRTTNLAPNLHLRTMS: the amyloid nucleation score came to 0.136 ± 1.2.

Regarding YSTRPKVPFVRKVFIIGL, the amyloid nucleation score was found to be 0.174 ± 0.43.

In the case of YSVLCIMRTLHAEIWFTGGI, the amyloid nucleation score is -0.023 ± 1.4.

In turn, YSYAGSLMAWSRKVHMHTEV gave an amyloid nucleation score of -0.19 ± 0.57.

For YTANYGILVFAVC, the amyloid nucleation score was -0.702 ± 1.4.

In turn, YTFLYSPTHCPRENHPNSVL returned an amyloid nucleation score of 0.211 ± 0.61.

Consider YTGKRKT, for which the amyloid nucleation score is -0.5 ± 0.46.

YTHGG: the amyloid nucleation score result was “inactive”.

Substance YTRFN gave an amyloid nucleation score of -1.66 ± 1.6.

Consider YTRFVKGYTRNRFSRDTSAV, for which the amyloid nucleation score was -0.084 ± 0.28.

For YTRRVTNDVNNFGTFTRMSS, the amyloid nucleation score worked out at 1.02 ± 0.27.

For YTSDKGKLYCGLMMG, the amyloid nucleation score is -0.045 ± 0.59.

YTYDLYVTSVLNVSRESSHC had an amyloid nucleation score of -0.343 ± 1.4.

As for YVAFEKTL, the amyloid nucleation score entry was “inactive”.

These data come from the supplement of paper PMC12042874.
